Assay results from the supplement of paper PMC12042874.
± gives the uncertainty stated by the source.

assay: amyloid nucleation score (Sup35N fusion, yeast selection) (log enrichment); library NNK1; higher = more nucleation; inactive = no reads after selection
Procedure, shortened: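 Peptides of 20 random codons, each fused to Sup35N, were expressed in psi-negative yeast. Cells were induced with 100 μM copper sulfate for 24 hours and grown 7 days at 30°C on medium lacking adenine and uracil, and plasmid inserts before and after selection were Illumina-sequenced. Nucleation scores are DiMSum log enrichments of output over input reads, centred on the mode score of non-aggregating sequences, and sequences under 100 input reads were excluded.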

Which amyloid nucleation score does the source give for THHSTSVSGVDQW here?
The amyloid nucleation score was 0.289 ± 0.52.

With CLQFSVEARRLLKLNVGALE as the substance, how does the amyloid nucleation score read?
Its amyloid nucleation score is 2.29 ± 0.13.

With GRLSYIIRSYSLIRV as the substance, how does the amyloid nucleation score read?
The amyloid nucleation score was -1.21 ± 0.5.

With CIDDFSNFVRNVGAFGEYSF as the substance, how does the amyloid nucleation score read?
The amyloid nucleation score was -0.752 ± 0.53.

For FFIDMCEL, which amyloid nucleation score is on record?
The amyloid nucleation score was -0.897 ± 0.53.

With GQGALDYF as the substance, how does the amyloid nucleation score read?
Its amyloid nucleation score is “inactive”.

Which amyloid nucleation score does the source give for VLQRVQKPLLCMRVLDIYAW here?
The amyloid nucleation score was -0.11 ± 0.43.

For MIMLIWVINSLTYGLEGLTA, which amyloid nucleation score is on record?
Its amyloid nucleation score is 0.919 ± 0.39.

Which amyloid nucleation score does the source give for VGLCYRGKWDGFLDKKVRWK here?
Its amyloid nucleation score is -1.73 ± 2.7.

Which amyloid nucleation score does the source give for LSGWHSNLAGRPFPNEMDDG here?
The amyloid nucleation score was 0.284 ± 0.3.

Which amyloid nucleation score does the source give for SPAFPP here?
Its amyloid nucleation score is 0.798 ± 0.79.

For EYTGSEPYLLVQVSLLNQRV, which amyloid nucleation score is on record?
The amyloid nucleation score was “inactive”.

For MKIGIGVFRDREGNSGWL, which amyloid nucleation score is on record?
The amyloid nucleation score was -0.741 ± 1.4.

With TINDKMITRFSLLCPAVSMI as the substance, how does the amyloid nucleation score read?
Its amyloid nucleation score is 1.21 ± 0.84.

With NLTTPIWDRSYCSYMNMMNS as the substance, how does the amyloid nucleation score read?
Its amyloid nucleation score is 0.369 ± 0.42.

With MRNYNLAWRHSSYCTIRSNA as the substance, how does the amyloid nucleation score read?
The amyloid nucleation score was 0.51 ± 0.84.

For LVSGRRGRRESSNHMVGLLE, which amyloid nucleation score is on record?
The amyloid nucleation score was 0.968 ± 0.51.

For SIGYMNLDRVI, which amyloid nucleation score is on record?
Its amyloid nucleation score is -0.944 ± 0.39.

With AFRTS as the substance, how does the amyloid nucleation score read?
Its amyloid nucleation score is -0.203 ± 0.43.

With IRLNVFFNMELMRLDLLWR as the substance, how does the amyloid nucleation score read?
The amyloid nucleation score was 0.311 ± 0.72.

For NDIPLSIRSHS, which amyloid nucleation score is on record?
The amyloid nucleation score was 0.269 ± 0.37.

Which amyloid nucleation score does the source give for GVKLYDFVNRCCVMNLLAVK here?
The amyloid nucleation score was 0.428 ± 0.47.

With RYDPMLWINLYCFLITGG as the substance, how does the amyloid nucleation score read?
Its amyloid nucleation score is 0.334 ± 0.39.

For YMEGAGRYWRGQRKLPPCIA, which amyloid nucleation score is on record?
The amyloid nucleation score was -0.414 ± 0.67.

For LHLNSCSQNITSLHYLPFWA, which amyloid nucleation score is on record?
The amyloid nucleation score was -0.113 ± 0.39.

For RDHMAYYMSVVGSSKNPLRR, which amyloid nucleation score is on record?
The amyloid nucleation score was “inactive”.

For MIPDINIFQIIMVTHKLFRY, which amyloid nucleation score is on record?
Its amyloid nucleation score is 3.71 ± 0.14.

For THGGCCQGFQPTQLQSLTHQ, which amyloid nucleation score is on record?
Its amyloid nucleation score is 0.367 ± 0.6.

Which amyloid nucleation score does the source give for GYLIYSWVLVNWNSGLEINK here?
The amyloid nucleation score was 2.62 ± 0.17.

For FYSNWRYDGYWDDLGMNIIV, which amyloid nucleation score is on record?
Its amyloid nucleation score is -0.372 ± 0.4.

With LGMCFENSPVNLFWAIDSQM as the substance, how does the amyloid nucleation score read?
Its amyloid nucleation score is 1.95 ± 0.37.

For PCFYSSGDVVMNRGV, which amyloid nucleation score is on record?
The amyloid nucleation score was -0.507 ± 0.26.

With VYFGDLLLKTSYL as the substance, how does the amyloid nucleation score read?
Its amyloid nucleation score is -0.747 ± 1.1.

Which amyloid nucleation score does the source give for MSLFNISSHSWLKFTLCVPG here?
Its amyloid nucleation score is 1.17 ± 0.66.

For TYHFCLFMSYSGSNRAALCN, which amyloid nucleation score is on record?
The amyloid nucleation score was -0.212 ± 1.

For QCSCSKWLAIRDWDGSSKMK, which amyloid nucleation score is on record?
Its amyloid nucleation score is 0.082 ± 1.6.

With VPFLWLRLCRRCYLTMGCSI as the substance, how does the amyloid nucleation score read?
The amyloid nucleation score was -0.491 ± 0.97.

Which amyloid nucleation score does the source give for LYLIGTILNLIGY here?
The amyloid nucleation score was 5.746 ± 0.045.

Which amyloid nucleation score does the source give for CTIILL here?
The amyloid nucleation score was 2.78 ± 0.14.

Which amyloid nucleation score does the source give for TQCSFAANQF here?
Its amyloid nucleation score is 0.768 ± 0.39.

For GLLNR, which amyloid nucleation score is on record?
Its amyloid nucleation score is 0.435 ± 0.19.

Which amyloid nucleation score does the source give for QFAHKVYPMSSCLVNVA here?
The amyloid nucleation score was -0.678 ± 0.57.

For YADWLEDCETVP, which amyloid nucleation score is on record?
Its amyloid nucleation score is -0.309 ± 0.45.

Which amyloid nucleation score does the source give for YNKGIRRSDQGLKWTFLWPE here?
Its amyloid nucleation score is -0.712 ± 0.53.

For FTWWHIRGCGCCVACEGHRS, which amyloid nucleation score is on record?
Its amyloid nucleation score is 0.05 ± 0.65.

With DPDHGPFQNNVWQRRPRWSH as the substance, how does the amyloid nucleation score read?
Its amyloid nucleation score is 0.124 ± 0.47.

For TGLWPMEYSCQCDVVYPVSY, which amyloid nucleation score is on record?
The amyloid nucleation score was -0.051 ± 0.76.

For RVWCLRTLKCLIAAR, which amyloid nucleation score is on record?
The amyloid nucleation score was 0.189 ± 0.45.

For WQKSWR, which amyloid nucleation score is on record?
Its amyloid nucleation score is 5.24 ± 0.074.

Which amyloid nucleation score does the source give for GCFEFVCEVAVGVSLDYSYL here?
The amyloid nucleation score was -0.085 ± 0.28.

With MLRSNVLYLIHRALCLWCVT as the substance, how does the amyloid nucleation score read?
The amyloid nucleation score was 2.42 ± 0.17.

With FIGMTDPMSIDILLLSS as the substance, how does the amyloid nucleation score read?
Its amyloid nucleation score is 0.389 ± 0.58.

Which amyloid nucleation score does the source give for CHWSCRSEVMPESVTDAGGW here?
The amyloid nucleation score was -0.072 ± 0.67.

For DKLSNVFLFLTDGCLNFNSF, which amyloid nucleation score is on record?
Its amyloid nucleation score is 3.1 ± 0.11.

Which amyloid nucleation score does the source give for VVSRRVYDYTMDGLWGQ here?
Its amyloid nucleation score is 0.44 ± 0.36.

Which amyloid nucleation score does the source give for YTFNVVCILTTEYWGNGWLY here?
Its amyloid nucleation score is 2.91 ± 0.16.

Which amyloid nucleation score does the source give for FSTVILSAYSAFSFGIYLLS here?
Its amyloid nucleation score is 1.46 ± 0.33.

Which amyloid nucleation score does the source give for HIGGTFVWLEFPCKWGLTED here?
The amyloid nucleation score was 4.46 ± 0.069.

For WRFMRFSSGRFNIGEYI, which amyloid nucleation score is on record?
The amyloid nucleation score was -0.431 ± 1.4.

Which amyloid nucleation score does the source give for FDGFRGNG here?
Its amyloid nucleation score is 0.487 ± 0.49.

With EEPLLSDMCITVGVRFLNKS as the substance, how does the amyloid nucleation score read?
The amyloid nucleation score was 3.36 ± 0.22.

Which amyloid nucleation score does the source give for ADCGRSVLTKVKRCDTFFSG here?
The amyloid nucleation score was 0.023 ± 0.27.

Which amyloid nucleation score does the source give for YGEHWSS here?
The amyloid nucleation score was 0.645 ± 1.2.

Which amyloid nucleation score does the source give for LCFYDKYGPQYL here?
Its amyloid nucleation score is -0.59 ± 0.54.

Which amyloid nucleation score does the source give for YVFFCIHTVGTPLGNCSIDV here?
Its amyloid nucleation score is “inactive”.

For QRSRHSIFQGILRGSNSSWD, which amyloid nucleation score is on record?
Its amyloid nucleation score is 1.12 ± 0.69.

With LNYLYDIMLSSLTSQTDSMS as the substance, how does the amyloid nucleation score read?
The amyloid nucleation score was -0.689 ± 0.66.

Which amyloid nucleation score does the source give for FRYSSDWWSYS here?
The amyloid nucleation score was -0.834 ± 1.4.

For TYNCILNSCSSSYTKVLV, which amyloid nucleation score is on record?
The amyloid nucleation score was 0.703 ± 0.24.

For FLLHF, which amyloid nucleation score is on record?
The amyloid nucleation score was -0.177 ± 0.62.

For ETRYPPRVNSVYTVWPMYLL, which amyloid nucleation score is on record?
Its amyloid nucleation score is 0.464 ± 0.43.

With SNCFGSSIGNYFRYMFVAYW as the substance, how does the amyloid nucleation score read?
Its amyloid nucleation score is 1.86 ± 0.47.

For KLRIRSWKVFTPNSLLVVAI, which amyloid nucleation score is on record?
Its amyloid nucleation score is -0.893 ± 1.1.

Which amyloid nucleation score does the source give for DLQCVAKVHESVGLGHHVHE here?
Its amyloid nucleation score is 0.659 ± 0.5.

For MLHHLSYVAVRWCKRTRKLC, which amyloid nucleation score is on record?
Its amyloid nucleation score is 0.405 ± 0.71.

For RCRYYCNR, which amyloid nucleation score is on record?
The amyloid nucleation score was -0.152 ± 0.48.

With NWEKVNLLTLRNTFRCSSRA as the substance, how does the amyloid nucleation score read?
The amyloid nucleation score was 0.751 ± 0.27.

With IVPRAFIAWIAYQGRSPYGA as the substance, how does the amyloid nucleation score read?
The amyloid nucleation score was 0.619 ± 1.2.

Which amyloid nucleation score does the source give for FCVRTEYSGGELAARSLDFA here?
Its amyloid nucleation score is 0.498 ± 0.97.

For PILMFTVCMSDSQTVLNFCS, which amyloid nucleation score is on record?
Its amyloid nucleation score is 6.56 ± 0.047.

Which amyloid nucleation score does the source give for LVQMLTVDCATEKLHLAILS here?
Its amyloid nucleation score is 0.567 ± 0.64.

With RYHSMYTNSNTRGFGSSLQL as the substance, how does the amyloid nucleation score read?
Its amyloid nucleation score is “inactive”.

Which amyloid nucleation score does the source give for LICVGCSCYSLKLSYNSSGL here?
Its amyloid nucleation score is 5.79 ± 0.058.

With TFLSL as the substance, how does the amyloid nucleation score read?
The amyloid nucleation score was 0.068 ± 0.24.

With IIFELKGLPLKNGMRGLKPL as the substance, how does the amyloid nucleation score read?
Its amyloid nucleation score is -0.579 ± 0.34.
